The term EC50 denotes the midpoint of the concentration-response curve.

Positions count from the first letter of the chain named.

Experiment [1] addresses unrelated Fc-fused recombinant protein (negative control). The experiment is described as follows: ELISA, bacterial lysate on plate-bound antigen, luminescence. For orientation: ELISA stands for enzyme-linked immunosorbent assay.
In experiment [2] the target is T1, recombinant biotinylated human CD137 protein (Fc-fusion protein, R&D Systems 838-4B) (human, UniProt Q07011 24-186, biotinylated (site not stated)).
T1 construct: Bought Fc fusion; The ELISA used the same antigen as the panning; also called CD137-Fc; biotinylated CD137; not shown: Fc part of the bought fusion protein
Described as above. In a few lines: (§1)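 Biotinylated CD137-Fc, an unrelated Fc-fusion protein or human serum albumin captured 1 h on streptavidin plates blocked in Starting Block T20; diluted bacterial lysate applied 1 h. Bound binders detected with HRP-conjugated anti-Centyrin antibody (PAB25) for 1 h, then POD substrate read-out.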

The target of another experiment is T2, human serum albumin (human, UniProt P02768 25-609).
T2 construct: Negative control antigen of the screening ELISA; also called HSA
The description is as above. The essentials: as §1

In experiment [3] the target is unrelated Fc-fused recombinant protein. The experiment is described as follows: ELISA, negative control Fc protein.
Experiment [4] addresses extracellular domain of human CD137 on the surface of CHO-K1 cells (human, UniProt Q07011 24-186). The experiment is described as follows: flow cytometry on CHO-K1 cells with human CD137 ECD. As to the method:
Cell surface binding was analyzed via flow cytometry. Cenyrins were prepared at a maximal concentration of 500 nM in the presence of 125 nM anti His-mIgG1 antibody and then serially diluted in PBS/1% FCS buffer. Samples were then applied to approx 100 000 CHO-Kl cells expressing the extracellular domain of human CD137 on their surface. Unbound Centyrin/Antibody complexes were washed away and bound FN3 domains were detected by the addition of goat anti mouse-FITC labeled antibody. Samples were then aquired by flow cytometry. Subsequently, Mean flurescence intensity was plotted against the log Centyrin concentration and EC50 values were calculated by nonlinear regression using GraphPad Prism.
(In general: In flow cytometry, cells or beads pass a laser one at a time.)

T2 sequence (P02768 25-609 limits assumed): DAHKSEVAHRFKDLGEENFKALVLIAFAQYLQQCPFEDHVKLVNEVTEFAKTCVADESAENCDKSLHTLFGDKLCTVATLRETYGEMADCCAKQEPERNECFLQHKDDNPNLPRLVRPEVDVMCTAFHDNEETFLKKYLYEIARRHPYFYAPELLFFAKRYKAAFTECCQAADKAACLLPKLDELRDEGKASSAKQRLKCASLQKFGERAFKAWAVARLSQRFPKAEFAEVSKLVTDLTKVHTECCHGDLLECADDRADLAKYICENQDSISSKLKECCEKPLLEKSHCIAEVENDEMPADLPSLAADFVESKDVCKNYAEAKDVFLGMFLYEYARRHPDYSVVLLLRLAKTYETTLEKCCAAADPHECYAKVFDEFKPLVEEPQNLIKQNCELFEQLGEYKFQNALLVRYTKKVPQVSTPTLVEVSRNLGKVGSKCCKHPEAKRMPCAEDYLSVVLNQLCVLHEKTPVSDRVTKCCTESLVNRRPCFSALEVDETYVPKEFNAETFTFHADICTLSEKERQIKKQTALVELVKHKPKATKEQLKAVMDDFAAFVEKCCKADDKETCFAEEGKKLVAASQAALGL

B1: ISOP120BR5P1D9 (designed binder, not shown: small tags and cut ends)
chain: LPAPKNLVVSRVTEDSARLSWTINSHIFDSFLIQYQESEKVGEAIVLTVPGSERSYDLTGLKPGTEYTVSIYGVWGTKYWQAQSNPLSAIFTT
notes: FN3 domain (Centyrin); tested as E. coli lysate
With B1, in experiment [1], the ELISA Fc Control (RLU) is 560 RLU. In addition, the “ELISA CD137-Fc (RLU)” value in experiment [2] is 1.22e+06 RLU. Also, in the experiment with human serum albumin, the “ELISA HSA (RLU)” value is 560 RLU.

B2: ISOP120BR5P1C9 (designed binder, not shown: small tags and cut ends)
chain: LPAPKNLVVSRVTEDSARLSWAWNRHDFDSFLIQYQESEKVGEAIVLTVPGSERSYDLTGLKPGTEYTVSIYGVHWTVLRPFIDSNPLSAIFTT
notes: as for B1
As to B2, the ELISA Fc Control (RLU) in experiment [1] is 320 RLU. Besides, the “ELISA CD137-Fc (RLU)” value in experiment [2] was 1.27e+06 RLU. The “ELISA HSA (RLU)” value with human serum albumin came out at 560 RLU.

B3: ISOP120BR5P1E4 (designed binder, not shown: small tags and cut ends)
chain: LPAPKNLVVSRVTEDSARLSWDDQFEDWFDSFLIQYQESEQVGEAIVLTVPGSERSYDLTGLKPGTEYTVSIYGVHTRDWTAWNASNPLSAIFTT
notes: as for B1
As to B3, the ELISA Fc Control (RLU) in experiment [1] is 320 RLU. The “ELISA CD137-Fc (RLU)” value in experiment [2] amounted to 942000 RLU. Moreover, the “ELISA HSA (RLU)” value with human serum albumin came to 560 RLU.

B4: ISOP120BR5P1A10 (designed binder, not shown: small tags and cut ends)
chain: LPAPKNLVVSRVTEDSARLSWTEEDITHLRFDSFLIQYQESEKVGEAIVLTVPGSERSYDLTGLKPGTEYTVSIYGVYWTWWVRWNSNPLSAIFTT
notes: as for B1
Regarding B4, in experiment [1], the ELISA Fc Control (RLU) stood at 36200 RLU. Moreover, the “ELISA CD137-Fc (RLU)” value in experiment [2] worked out at 573000 RLU. Besides, the “ELISA HSA (RLU)” value in the experiment with human serum albumin worked out at 26600 RLU.

B5: ISOP120BR5P1E6 (designed binder, not shown: small tags and cut ends)
chain: LPAPKNLVVSRVTEDSARLSWLEGANAEFDSFLIQYQESEKVGEAIVLTVPGSERSYDLTGLKPGTEYTVSIYGVHWVGPWYPVSNPLSAIFTT
notes: as for B1
Take B5: the ELISA Fc Control (RLU) in experiment [1] was 320 RLU. In experiment [2], the “ELISA CD137-Fc (RLU)” value is 779000 RLU. For the same molecule, the “ELISA HSA (RLU)” value with human serum albumin was found to be 400 RLU.

B6: ISOP120BR5P1H3 (designed binder, not shown: small tags and cut ends)
chain: LPAPKNLVVSRVTEDSARLSWEESRQFFDSFLIQYQESEKVGEAIVLTVPGSERSYDLTGLKPGTEYTVSIYGVVHRAWLRWNGSNPLSAIFTT
notes: as for B1
As to B6, in experiment [1], the ELISA Fc Control (RLU) was 2000 RLU. In experiment [2], the “ELISA CD137-Fc (RLU)” value was found to be 875000 RLU. In addition, in the experiment with human serum albumin, the “ELISA HSA (RLU)” value came to 720 RLU.

B7: ISOP120GR5P1E1 (designed binder, not shown: small tags and cut ends)
chain: LPAPKNLVVSRVTEDSARLSWTAPDAAFDSFIIQYAEDSSWGEAINLHVPGSERSYDLTGLKPGTEYHVHIYGVKGGEASNPLWAWFTT
notes: as for B1
Take B7: the ELISA Fc Control (RLU) in experiment [1] was determined as 320 RLU. The “ELISA CD137-Fc (RLU)” value in experiment [2] turned out to be 1.02e+06 RLU. Further, in the experiment with human serum albumin, the “ELISA HSA (RLU)” value is 320 RLU.

B8: ISOP120BR5P1D3 (designed binder, not shown: small tags and cut ends)
chain: LPAPKNLVVSRVTEDSARLSWSEHPTPFATFDSFLIQYQESEKVGEAIVLTVPGSERSYDLTGLKPGTEYTVSIYGVWWVENHFPVSNPLSAIFTT
notes: as for B1
Turning to B8, the ELISA Fc Control (RLU) in experiment [1] stood at 240 RLU. Moreover, in experiment [2], the “ELISA CD137-Fc (RLU)” value was determined as 1.14e+06 RLU. The “ELISA HSA (RLU)” value in the experiment with human serum albumin turned out to be 400 RLU.

B9: ISOP120BR5P1G11 (designed binder, not shown: small tags and cut ends)
chain: LPAPKNLVVSRVTEDSARLSWTKRHFYTFDSFLIQYQESEKVGEAIVLTVPGSERSYYLTGLKPGTENTVSIYGVHGNHPYTDAPANPLSAIFTT
notes: as for B1
With B9, the ELISA Fc Control (RLU) in experiment [1] was 480 RLU. The “ELISA CD137-Fc (RLU)” value in experiment [2] was 485000 RLU. In addition, the “ELISA HSA (RLU)” value in the experiment with human serum albumin is 560 RLU.

B10: ISOP120BR5P1E8 (designed binder, not shown: small tags and cut ends)
chain: LPAPKNLVVSRVTEDSARLSWNGGEYWVPRFDSFLIQYQESEKVGEAIVLTVPGSERSYDLTGLKPGTEYTVSIYGVVWLQWISWTDSNPLSAIFTT
notes: as for B1
Consider B10, for which the ELISA Fc Control (RLU) in experiment [1] amounted to 480 RLU. Also, in experiment [2], the “ELISA CD137-Fc (RLU)” value is 906000 RLU. Moreover, the “ELISA HSA (RLU)” value in the experiment with human serum albumin worked out at 640 RLU.

B11: ISOP120BR5P1C7 (designed binder, not shown: small tags and cut ends)
chain: LPAPKNLVVSRVTEDSARLSWNVTQKEFDSFLIQYQESEKVGEAIVLTVPGSERSYDLTGLKPGTEYTVSIYGVGNRYYTVYDSNPLSAIFTT
notes: as for B1
Turning to B11, the ELISA Fc Control (RLU) in experiment [1] came to 880 RLU. Further, in experiment [2], the “ELISA CD137-Fc (RLU)” value is 306000 RLU. The “ELISA HSA (RLU)” value with human serum albumin was 240 RLU.

B12: ISOP120BR5P1B7 (designed binder, not shown: small tags and cut ends)
chain: LPAPKNLVVSRVTEDSARLSWGAKTRQFDSFLIQYQESEKVGEAIVLTVPGSERSYDLTGLKPGTEYTVSIYGVWWVENHFPVSNPLSAIFTT
notes: as for B1
Regarding B12, the ELISA Fc Control (RLU) in experiment [1] worked out at 400 RLU. In experiment [2], the “ELISA CD137-Fc (RLU)” value worked out at 565000 RLU. The “ELISA HSA (RLU)” value with human serum albumin turned out to be 480 RLU.

B13: ISOP120BR5P1B9 (designed binder, not shown: small tags and cut ends)
chain: LPAPKNLVVSRVTEDSARLSWAVEFNPTKFDSFLIQYQESEKVGEAIVLTVPGSERSYDLTGLKPGTEYTVSIYGVWWFEQWYPVSNPLSAIFTT
notes: as for B1
Turning to B13, the ELISA Fc Control (RLU) in experiment [1] was determined as 560 RLU. The “ELISA CD137-Fc (RLU)” value in experiment [2] is 358000 RLU. The “ELISA HSA (RLU)” value with human serum albumin stood at 400 RLU.

B14: ISOP120BR5P1G4 (designed binder, not shown: small tags and cut ends)
chain: LPAPKNLVVSRVTEDSARLSWAGHYRKIRNFDSFLIQYQESEKVGEAIVLTVPGSERSYDLTGLKPGTEYTVSIYGVKFPYYYATADSNPLSAIFTT
notes: as for B1
Turning to B14, in experiment [1], the ELISA Fc Control (RLU) came to 480 RLU. In addition, the “ELISA CD137-Fc (RLU)” value in experiment [2] turned out to be 580000 RLU. Further, the “ELISA HSA (RLU)” value in the experiment with human serum albumin stood at 400 RLU.

B15: ISOP120BR5P1A5 (designed binder, not shown: small tags and cut ends)
chain: B14 chain with E56K
notes: as for B1
Consider B15, for which the ELISA Fc Control (RLU) in experiment [1] came out at 640 RLU. In addition, in experiment [2], the “ELISA CD137-Fc (RLU)” value stood at 503000 RLU. Besides, the “ELISA HSA (RLU)” value with human serum albumin stood at 400 RLU.

B16: ISOP120AR5P1C3 (designed binder, not shown: small tags and cut ends)
chain: LPAPKNLVVSRVTEDSARLSWSPVDADFTFDSFLIQYQESEKVGEAIVLTVPGSERSYDLTGLKPGTEYTVSIYGVGRHYTVYDSNPLSAIFTT
notes: as for B1
B16: the ELISA Fc Control (RLU) in experiment [1] came out at 320 RLU. For the same molecule, in experiment [2], the “ELISA CD137-Fc (RLU)” value was found to be 927000 RLU. In the experiment with human serum albumin, the “ELISA HSA (RLU)” value was 240 RLU.

B17: ISOP120BR5P1D8 (designed binder, not shown: small tags and cut ends)
chain: LPAPKNLVVSRVTEDSARLSWKNHTQEWEFDSFLIQYQESEKVGEAIVLTVPGSERSYDLTGLKPGTEYTVSIYGVPIAWLAWTSTSNPLSAIFTT
notes: as for B1
With B17, in experiment [1], the ELISA Fc Control (RLU) worked out at 480 RLU. Besides, the “ELISA CD137-Fc (RLU)” value in experiment [2] is 942000 RLU. The “ELISA HSA (RLU)” value with human serum albumin came out at 320 RLU.

B18: ISOP193ER9P1G11 (designed binder, not shown: small tags and cut ends)
chain: LPAPKNLVVSRVTEDSARLSWTAPDAAFDSFDIYYFEHPVGGEAIVLTVPGSERSYDLTGLKPGTEYLVTIYGVKGGYLSMPLSAIFTT
Consider B18, for which the ELISA Fc Control (RLU) in experiment [3] is 1440 RLU. Moreover, in experiment [4], the EC50 was determined as 18.7 nM.

B19: ISOP120GR5P1G3 (designed binder, not shown: small tags and cut ends)
chain: LPAPKNLVVSRVTEDSARLSWTAPDAAFDSFYIRYWEFCHSGEAIELSVPGSERSYDLTGLKPGTEYFVRIVGVKGGRVSLPLGAKFTT
notes: as for B1
Take B19: the ELISA Fc Control (RLU) in experiment [1] stood at 320 RLU. The “ELISA CD137-Fc (RLU)” value in experiment [2] was found to be 1.34e+06 RLU. Further, the “ELISA HSA (RLU)” value in the experiment with human serum albumin stood at 320 RLU.

Values taken from patent publication US20220259289A1 (Janssen / Centocor, published 2022).
